Test [1] concerns the target F-actin (rabbit skeletal muscle actin, polymerized) (rabbit) (UniProt P68135).
For test [2], the target named is F-actin (Oryctolagus cuniculus) (UniProt P68135). As to conditions: cited from earlier work.
Test [3] addresses α-actinin-2 (Homo sapiens) (UniProt P35609). The note with it: cited from earlier work.

Drawing on publication PMC8062120, this text covers FRAP in Z-discs of C2C12 myotubes, median half-time of fluorescence recovery and Kd for seven substances.

Sequence of Titin Zr-7 (Q8WZ42 692-740): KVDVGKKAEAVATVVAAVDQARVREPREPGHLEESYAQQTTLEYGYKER
Sequence of α-actinin-2 (Homo sapiens) (P35609 whole entry): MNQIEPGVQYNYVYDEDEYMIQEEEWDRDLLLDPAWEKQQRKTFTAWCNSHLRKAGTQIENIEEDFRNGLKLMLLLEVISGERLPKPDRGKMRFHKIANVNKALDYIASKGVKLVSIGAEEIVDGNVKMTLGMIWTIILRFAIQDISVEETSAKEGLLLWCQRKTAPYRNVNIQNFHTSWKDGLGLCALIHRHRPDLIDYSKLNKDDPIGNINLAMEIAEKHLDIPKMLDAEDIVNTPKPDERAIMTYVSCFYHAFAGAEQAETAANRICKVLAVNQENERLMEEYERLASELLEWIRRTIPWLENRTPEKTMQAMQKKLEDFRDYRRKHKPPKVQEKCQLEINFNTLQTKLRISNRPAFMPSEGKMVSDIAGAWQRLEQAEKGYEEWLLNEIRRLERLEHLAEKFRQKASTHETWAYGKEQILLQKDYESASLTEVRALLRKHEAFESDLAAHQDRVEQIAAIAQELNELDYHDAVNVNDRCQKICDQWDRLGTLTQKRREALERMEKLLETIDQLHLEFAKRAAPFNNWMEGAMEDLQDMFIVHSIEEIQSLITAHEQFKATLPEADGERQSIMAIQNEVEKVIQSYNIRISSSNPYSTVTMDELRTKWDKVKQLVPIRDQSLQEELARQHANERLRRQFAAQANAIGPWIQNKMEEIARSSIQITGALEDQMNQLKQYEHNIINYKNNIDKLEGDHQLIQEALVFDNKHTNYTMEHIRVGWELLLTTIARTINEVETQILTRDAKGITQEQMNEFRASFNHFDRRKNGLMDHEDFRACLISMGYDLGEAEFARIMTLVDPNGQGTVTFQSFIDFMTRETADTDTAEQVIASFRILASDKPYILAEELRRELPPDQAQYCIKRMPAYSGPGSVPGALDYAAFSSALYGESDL

“N-terminal EGFP fusion of myotilin K354/359A (from UniProt Q9UBF9 1-498) (natural protein)”: the FRAP in Z-discs of C2C12 myotubes, median half-time of fluorescence recovery in test [1] came to 35.5 s.
Same read-out and setting: in the case of “N-terminal EGFP fusion of myotilin K359A (from UniProt Q9UBF9 1-498) (natural protein)” it was 64.1 s.
What is called Kd is the free concentration of one partner at which half of the binding sites on the other are occupied at equilibrium, for simple one-to-one binding. For Palladin (from UniProt Q8WX93), the equilibrium dissociation constant (Kd) in test [2] is 2.1 µM.
As to Titin Zr-7 (from UniProt Q8WZ42), the dissociation constant (Kd) in test [3] was 0.48 µM.
In turn, “N-terminal EGFP fusion of myotilin K354/358/359A (from UniProt Q9UBF9 1-498) (natural protein)” returned an FRAP in Z-discs of C2C12 myotubes, median half-time of fluorescence recovery in test [1] of 32.3 s.
In test [1], “N-terminal EGFP fusion of myotilin K354A (from UniProt Q9UBF9 1-498) (natural protein)” returned an FRAP in Z-discs of C2C12 myotubes, median half-time of fluorescence recovery of 48.2 s.
For “N-terminal EGFP fusion of myotilin, wild type (from UniProt Q9UBF9 1-498) (natural protein)”, the FRAP in Z-discs of C2C12 myotubes, median half-time of fluorescence recovery in test [1] stood at 72.4 s.
